Results taken from publication PMC8556157.

Target: Type 4 LDH (BL105A_0985), aromatic lactate dehydrogenase (ALDH) of B. longum ssp. longum 105-A (Bifidobacterium longum ssp. longum 105-A) (UniProt Q8G593)
Assay: SEC; native molecular mass of the purified recombinant enzyme estimated by size exclusion chromatography (Supplementary Fig. 7b); dimer of the 33.9 kDa chain

- stoichiometry N: 2
Substance: Type 4 LDH (BL105A_0985), aromatic lactate dehydrogenase (ALDH) of B. longum ssp. longum 105-A (from UniProt Q8G593 1-545) (enzyme)
